The record followed here is patent US20160137713A1 (HANALL BIOPHARMA, published 2016).

Experiment [1] has as its target T1, human FcRn on HEK293 cells (human, UniProt P55899 24-365; P61769 21-119).
T1 construct: whole, on cells; also called hFcRn
The experiment in a line: FACS competition on hFcRn HEK293 cells at pH 6.0; remaining binding of 100 nM Alexa488-labeled hIgG1 (m14) with 250 nM competitor antibody, percent of the tube without competitor. The procedure:
(§1) In stable HEK293 cells expressing human FcRn, the blocking of the antibody against FcRn was analyzed by FACS. The antibody was diluted in binding buffer (PBS pH 6.0, 10 mM EDTA) at concentrations of 2,000 nM, […] to make 50 μl of dilutions, which were dispensed into tubes. […] Stable HEK293 cells were diluted in binding buffer at a concentration of 2,500,000 cells/ml, and 40 μl of the cell dilution was added to each of the labeled antibody-containing tubes. Thus, a final volume of 100 μl contained 100,000 cells, 100 nM labeled antibody and 1000 nM, 500 nM or 250 nM competitor antibody. The cells were washed once with 150 μl of buffer (pH 6.0), and pellets were obtained therefrom and resuspended in 150 μl of buffer having pH difference. The suspension was transferred into a tube for FACS analysis. The cells were analyzed by FACS using BD FACSDiva™ v6.1.3 software (BD Bioscience). The results of the analysis were expressed as mean fluorescence intensity (MFI).
(§2) The MFI of the test group was processed after subtracting the MFI (background signal) measured in cells alone.

Experiment [2] has as its target T2, soluble human FcRn (human, UniProt P55899 24-297; P61769 21-119).
T2 construct: extracellular domain;mature; Non-covalent heterodimer secreted by 293 cells, purified on IgG Sepharose; also called shFcRn; soluble FcRn
The experiment can be described thus: SPR, shFcRn immobilised, pH 6.0. The procedure: Measurement of the binding ability of antibody by SPR was performed by immobilizing shFcRn as a ligand onto a Proteon GLC chip (Bio-Rad) and measuring affinity.
The analysis of ligand and analyte was performed using a Proteon GLC chip, and the interaction was analyzed at a pH of 6.0 and a pH of 7.4. Immobilization of the ligand was activated by injecting a 1:1 mixture of 1×EDAC (EDC) and 1× Surfo-NHS for 5 minutes. shFcRn was diluted in 10 mM sodium acetate (pH 4.5) at a concentration of 25 μg/ml and added to the ligand at a flow rate of 30 μl/min for 5 minutes. […] The analyte antibody was allowed to flow on the immobilized chip at a flow rate of 30 μl/min. […] The association time of the analyte antibody was 240 seconds, and the dissociation time was 600 seconds. Regeneration of the chip was performed by injecting 10 mM glycine (pH 2.5) at a flow rate of 100 μl/min for 18 seconds. Based on sensorgrams resulting from six concentrations of the analyte, kinetics analysis was performed using Proteon XPR36 software.
(In general: In SPR one partner is held on a chip, and binding of the other changes the refractive index at the surface.)

The target in experiment [3] is T1, human FcRn on HEK293 cells. The experiment can be described thus: FACS competition on hFcRn HEK293 cells at pH 6.0; remaining binding of 100 nM Alexa488-labeled hIgG1 (m14) with 500 nM competitor antibody, percent of the tube without competitor. The protocol:
as §1, §2

Experiment [4] deals with T3, rat FcRn on Rat-2 cells (rat, UniProt P13599 23-366; P07151 21-119).
T3 construct: whole, on cells
T3 sequence (looked up): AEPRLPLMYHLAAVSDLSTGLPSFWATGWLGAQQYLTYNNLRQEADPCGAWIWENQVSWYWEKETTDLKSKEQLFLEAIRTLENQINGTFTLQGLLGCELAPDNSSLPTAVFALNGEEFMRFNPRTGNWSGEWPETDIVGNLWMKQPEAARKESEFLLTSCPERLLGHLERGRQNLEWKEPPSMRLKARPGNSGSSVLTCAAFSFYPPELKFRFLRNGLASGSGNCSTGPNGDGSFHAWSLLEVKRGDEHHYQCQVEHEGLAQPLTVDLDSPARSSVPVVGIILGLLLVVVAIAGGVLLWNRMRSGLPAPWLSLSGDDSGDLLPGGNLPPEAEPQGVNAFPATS
T3 sequence (b2m, looked up): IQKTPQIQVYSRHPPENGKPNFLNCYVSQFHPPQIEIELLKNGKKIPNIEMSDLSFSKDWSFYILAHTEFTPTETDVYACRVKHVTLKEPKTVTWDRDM
The experiment in a line: FACS on rat FcRn-expressing Rat-2 cells at pH 6.0 and pH 7.4, FITC anti-human IgG goat antibody; MFI relative to hIgG. The procedure: Rat-2 (KCTC #AC28203), rat fibroblasts stably expressing rat FcRn, were cultured in 10% FBS DMEM medium, and then detached from the culture plate by trypsin treatment. The cells were washed three times with cold binding buffer (PBS pH 6.0, 10 mM EDTA), and then diluted in binding buffer at a concentration of 10⁵ cells/ml. 100 μl of the cell dilution was dispensed into each 1.5-ml tube in such a manner that each tube contained 10⁴ cells, and 1 μl of HL161 antibody (1 mg/ml) was added to the dispensed cells. Next, the cells were incubated on ice. As control antibodies, 1 μl of each of mouse 1G3 antibody and human IgG antibody (Abcam, cat#. 409120), which bind to rat FcRn, was used. The 1G3 antibody was produced and purified from mouse hybridoma cells (ATCC CRL2434). The cells were recovered by centrifugation at 4° C. and 4000 rpm for 5 minutes, after which the cells were washed once with binding buffer and resuspended in 100 μl of binding buffer. As FITC-conjugated secondary antibody, 1 μl of anti-human IgG goat antibody (Invitrogen, cat#. A11013) was added to the cells. In the case of the experiment using anti-rat FcRn mouse antibody, the anti-mouse IgG goat antibody (Invitrogen, cat#. A11001) was incubated with the cells on ice for 1 hour, and then the cells were recovered by centrifugation at 4° C. and 4000 rpm for 5 minutes, washed once with binding buffer, resuspended in 400 μl of binding buffer and analyzed by FACS to examine the cross-reactivity of the HL161 antibodies with rat FcRn (see FIG. 4). An experiment at a pH of 7.4 was performed using binding buffer at a pH of 7.4 in the same manner as the experiment using binding buffer at a pH of 6.0. The degree of the binding of each antibody to rat FcRn was presented as relative MFI based on human IgG.

T1 sequence (P55899 24-365, chain 1 of 2): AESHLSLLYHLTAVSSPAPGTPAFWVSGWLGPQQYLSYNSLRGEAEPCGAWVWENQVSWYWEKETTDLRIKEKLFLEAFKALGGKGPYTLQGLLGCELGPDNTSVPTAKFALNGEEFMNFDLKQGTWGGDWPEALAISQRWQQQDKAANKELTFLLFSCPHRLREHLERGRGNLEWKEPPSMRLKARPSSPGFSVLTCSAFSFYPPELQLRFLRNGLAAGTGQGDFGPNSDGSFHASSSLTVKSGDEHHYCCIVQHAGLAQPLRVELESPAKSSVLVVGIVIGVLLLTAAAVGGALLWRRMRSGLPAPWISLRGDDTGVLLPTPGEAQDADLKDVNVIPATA
T1 sequence (P61769 21-119, chain 2 of 2): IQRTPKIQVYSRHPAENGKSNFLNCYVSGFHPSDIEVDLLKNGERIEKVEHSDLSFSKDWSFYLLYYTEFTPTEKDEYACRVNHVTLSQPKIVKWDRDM
T2 sequence (P55899 24-297, chain 1 of 2): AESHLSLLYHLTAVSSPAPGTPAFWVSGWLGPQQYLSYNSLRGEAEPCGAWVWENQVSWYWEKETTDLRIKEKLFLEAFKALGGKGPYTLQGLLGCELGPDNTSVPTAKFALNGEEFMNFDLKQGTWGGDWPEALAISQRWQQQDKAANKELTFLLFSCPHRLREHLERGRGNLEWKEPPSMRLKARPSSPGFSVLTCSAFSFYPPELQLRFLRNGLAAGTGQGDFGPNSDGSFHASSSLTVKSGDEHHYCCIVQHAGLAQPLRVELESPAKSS
T2 sequence (P61769 21-119, chain 2 of 2): as the sequence (P61769 21-119, chain 2 of 2) above

B1: HL161-11H (antibody, V domains shown)
VH: QMQLVESGGGLVQPGRSLRLSCAASGFTFSSYAMHWVRQAPGKGLEWVAVISYDGSNKYYADSVKGRFTISRDNSKNTLYLQMNSLRSEDTAVYYCSRGSGGRDAFDVWGQGTMITVSS
VL: DIQMTQSPSTLSASVGDRVTITCRASQSISSRLAWYQQKPGKAPKLLIYKASSLETGVPSRFSGSGSGTEFTLTISSLQPDDFATYYCQQTNSFPLTFGGGTKVEIK
notes: Whole human IgG from pNATAB vectors
For orientation: koff means a measure of how fast the partners let go of each other. High values mean fast dissociation, low ones slow dissociation. The term kon denotes the rate constant with which the complex forms. Higher therefore signals faster complex formation. For B1, the “Relative MFI(%) at 250nM” value in experiment [1] was 75.4%. In experiment [2], this molecule returned a koff of 0.00034 s⁻¹ and a kon of 970000 M⁻¹ s⁻¹. For the same molecule, the “Relative MFI(%) at 500nM” value in experiment [3] was determined as 60.4%. Also, the binding result in experiment [4] is “no binding”.
